# Laboratory results from US20220273810A1 (IMCARE BIOTECH, published 2022).
# T1: NS-SPIK (Normal Secreted serine protease inhibitor Kazal) (Homo sapiens (Human), UniProt P00995 24-79)
# T1 construct: also called Normal Secreted SPIK
# T1 sequence: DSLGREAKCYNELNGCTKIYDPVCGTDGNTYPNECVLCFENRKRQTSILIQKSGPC
# B1: IM-D3 (antibody, V domains shown)
# VH: QSVKESEGGLFKPTDTLTLTCTVSGFSLSSYAIGWVRQAPGNGLEWIGTIVTSGIPYYANWAKSRSTITRNTNLNTVTLKMTSLTAADTATYFCARNLDPAYSTTRLDLWGQGTLVTVSS
# VL: AYDMTQTPASVSEPVRGTVTIKCQASQSISTALAWYQQKPGQPPKLLIYAASYLASGVPSRFSGSGSGTEFTLTISDLECADAATYYCHQGYSASNVDNTFGGGTEGGVKG
# notes: Rabbit monoclonal antibody
# B2: IM-G7 (antibody, V domains shown)
# VH: QSVKESEGGLFKPTDTLTLTCTVSGFSLSSNVISWVRQAPGKGLEWIGDIYVSGNTDYASWAKSRSTITRNANLNTVTLKMTSLTAADTATYFCARYDMSSDAFDPWGPGTLVTVSS
# VL: AYDMTQTPASVEVAVGGTVTIKCQASQNIGSYLSWYQHKPGQRPRLLMYRASTLASGVSSRFKGSGSGTEFTLTISGVQCDNAATYYCQQGYTNSGVDNTFGGGTEVVVKG
# notes: Rabbit monoclonal antibody
# B3: IM-E2 (antibody, V domains shown)
# VH: QSVKESEGGLFKPTDTLTLTCTVSGFSLSAYAISWVRQAPGNGLEWIGAINSGGSAYYANWAKSRSTITRNTNLNTVTLKMTSLTAADTATYFCAREDIYDYGGAFDPWGPGTLVTVST
# VL: AYDMTQTPASVEVTVGGTVTIKCQASQGISSYLSWYQQKPGQPPKLLIYAATTLVSGVSSRFKGSGSGTQFTLTISGVECADAATYYCQQDYTTSNVDNTFGGGTEVVVKG
# notes: Rabbit monoclonal antibody
# B4: IM-G6 (antibody, V domains shown)
# VH: QSVKESEGGLFKPTDTLTLTCTVSGFSLSSYPISWVRQAPGNGLEWIGDIYASGSILYASWATGRSTITRNTNLNTVTLKMTSLTAADTATYFCARVSYSGGTDIWGPGTLVTVSS
# VL: AYDMTQTPASVEVAVGGTVTIKCQASEDIESYLAWYQQKPGQPPKLLIYRASTLPSGVPSRFKGSGSGTEFTLTISDLECADAATYYCQQDYSSSNVDNTFGGGTEVVVKG
# notes: Rabbit monoclonal antibody
# B5: IM-A6 (antibody, V domains shown)
# VH: QSVKESEGGLFKPTDTLTLTCTVSGFSLSSYAISWVRQAPGNGLEWIGRINSGGATDYASWARSRSTITRDTNLNTVTLQMTSLTAADTATYFCAKEEYSYGGAYGMWGPGTLVTVSS
# VL: AYDMTQTPASVSAAVGGTVTIKCQASESISTYLSWLQQKPGQPPKLLIYKASTLASGVPSRFKGSGSGTEFTLTISGVQCDDAATYYCQQDYTISNVGNVFGGGTEVVVKG
# notes: Rabbit monoclonal antibody; also called I-A6
# B6: IM-F5 (antibody, V domains shown)
# VH: QSVKESEGGLFKPTDTLTLTCTVSGFSLSIYGVSWVRQAPGNGLEWIGIIYASGSADYASWAKSRSTITRNTNLNTVTLKMTSLTAADTATYFCAREDDTYGYTSSIWGPGTLVTVSS
# VL: AYDMTQTPASVSAAVGGTVTIKCQASQSISSYLNWYQQKPGQPPKRLIYRASTLASGVSSRFKGSGSGTQFTLTISGVECADAATYYCQQDYSSNNIDNTFGGGTEVVVKG
# notes: Rabbit monoclonal antibody
# B7: IM-D5 (antibody, V domains shown)
# VH: QSVKESEGGLFKPTDTLTLTCTVSGFSLSSYAISWVRQAPGNGLEWIGAIGKSGSAYYASWAKSRSTITRNTNLNTVSLKMTSLTAADTATYFCARWDSVGWTDARLDLWGQGTLVTVSS
# VL: AYDMTQTPASVEVAVGGTVTIKCQASQSISTALAWYQQKPGQRPKLLIYGASKLASGVSSRFSGSGSGTEFTLTISGVECADAATYYCQQGYETSNVDNAFGGGTEVVVKG
# notes: Rabbit monoclonal antibody
# B8: IM-C6 (antibody, V domains shown)
# VH: QSVKESEGGLFKPTDALTLTCTVSGFSLSSYAISWVRQAPGSGLEWIGAINTYGGTYYASWAKSRSTITRNTNENTVTLKMTSLTAADTATYFCARDFDSDAYTSASGGMDPWGPGTLVTVSS
# VL: AYDMTQTPASVEVAVGGTVTIKCQASQSINNYLSWYQQIPGQPPKLLIYRASTLASGVSSRFKGSGSGTQFTLTISGVQCADAATYYCQQGYTSNVDNVFGGGTEVVVKG
# notes: Rabbit monoclonal antibody
# B9: IM-A1 (antibody, V domains shown)
# VH: QSVKESEGGLFKPTDTLTLTCTVSGFSLSSNAISWVRQAPGNGLEWIGAIGSSGSTYYASWAKSRSTVTRNTNLNTVTLKMTSLTAADTATYFCARWENIGYTNVRLDLWGQGTLVTVSS
# VL: AYDMTQTPASVEVAVGGTVTIKCQASQSISTALAWYQQKPGQPPKLLIYGASTLASGVSSRFKGSGSGTQFTLTISGVECADAATYYCQQGYSTSDVDNAFGGGTEG
# notes: Rabbit monoclonal antibody; also called I-A1
# B10: IM-B10 (antibody, V domains shown)
# VH: QSVKESEGGLFKPTDTLTLTCTVSGFSLSSYGVSWVRQAPGKGLEWIGSIWSGGTTDYASWAKSRSTITRNTNENTVTLKVTSLTAADTATYFCARGGYDYGYASNIWGPGTLVTVSS
# VL: AYDMTQTPASVEVAVGGTVTIKCQASESISSYLSWYQQKPGQPPKLLIYRASTLASGVPSRFSGSGSGTEFTLTISDGQCDDAATYYCQQGYSVSNVDNIFGGGTEVVVKG
# notes: Rabbit monoclonal antibody; also called IM4-B10
# Molecular target: T1, NS-SPIK (Normal Secreted serine …)
# Test: ELISA on a plate immobilised with NS-SPIK from pancreatic cells, OD450nm; antibody concentration not given
# Protocol: Ten monoclonal antibodies described here were generated from rabbit. Briefly, rabbit were immunized with the recombinant AS-SPIK which contain different subsets of 23 extra amino acids (SEQ ID NO: 81). The blood was tested after three or four time imbursements by ELISA. Briefly, blood from immunized rabbits were reacted with plate coated with recombinant AS-SPIK. After washing, the color was developed by incubation of the plate with an anti-rabbit antibody labeled with HRP (horseradish peroxidase), and the optical density was measured after reaction with substrate TMB. The rabbit which is positive in test (produced antibody) was sacrificed. The monoclonal antibody was then established and further screened with ELISA using the plates immobilized with partially purified AS-SPIK from S2-3 cells, a cell line expresses high amount of AS-SPIK by integrated entire SPIK gene, Lu et. al Tumor-associated protein SPIK TATI suppresses serine protease dependent cell apoptosis, Apoptosis, 2008 13(4), 483-494 and NS—SPIK from pancreatic cells. Finally, 10 monoclonal antibodies which strongly bind AS-SPIK but not NS-SPIK were selected.
row,Binder,binding result
1,B1,no binding
2,B2,no binding
3,B3,no binding
4,B4,no binding
5,B5,no binding
6,B6,no binding
7,B7,no binding
8,B8,no binding
9,B9,no binding
10,B10,no binding

# Molecular target: AS-SPIK (Abnormal Secreted serine protease inhibitor Kazal) (Homo sapiens (Human)) (UniProt P00995)
# Test: sandwich ELISA, HCC patient serum (serum AS-SPIK), complex captured on polyclonal anti-SPIK plate, anti-rabbit-HRP/TMB
row,Binder,OD [OD]
1,B3,1.48

# Molecular target: AS-SPIK (Abnormal Secreted serine protease inhibitor Kazal) (Homo sapiens (Human)) (UniProt P00995)
# Test: sandwich ELISA, S2-3 medium, complex captured on polyclonal anti-SPIK plate, anti-rabbit-HRP/TMB
row,Binder,OD [OD]
1,B3,1.39
